Here are results for 1 molecule from patent US20220133701A1, “METHODS OF TREATING PAIN” (Yeda Research and Development Co. Ltd., priority 2019, published 2022).

The target of the experiment is T1, importin α3 (endogenous, mouse DRG sensory neurons) (mouse, UniProt O35343 2-521).
T1 construct: whole, on cells; Endogenous protein detected in fixed neurons with a rabbit polyclonal anti-importin α3 antibody in the proximity ligation assay; The protein is intracellular, not on the cell surface; also called Impα3; Karyopherin Subunit Alpha 4
T1 sequence (looked up): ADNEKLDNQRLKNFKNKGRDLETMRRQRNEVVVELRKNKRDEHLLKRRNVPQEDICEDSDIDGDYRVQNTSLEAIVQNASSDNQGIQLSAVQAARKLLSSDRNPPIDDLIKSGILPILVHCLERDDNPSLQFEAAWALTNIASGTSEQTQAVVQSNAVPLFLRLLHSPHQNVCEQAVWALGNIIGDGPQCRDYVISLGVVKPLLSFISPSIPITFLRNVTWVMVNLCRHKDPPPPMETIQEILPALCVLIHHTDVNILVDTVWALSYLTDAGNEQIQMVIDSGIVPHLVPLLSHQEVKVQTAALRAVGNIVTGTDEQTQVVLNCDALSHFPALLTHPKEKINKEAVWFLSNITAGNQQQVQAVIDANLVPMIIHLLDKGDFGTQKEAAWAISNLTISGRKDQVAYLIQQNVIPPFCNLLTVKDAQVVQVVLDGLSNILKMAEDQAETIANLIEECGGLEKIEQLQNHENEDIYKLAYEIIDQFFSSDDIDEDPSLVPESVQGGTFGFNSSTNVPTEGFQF
Description: proximity ligation assay of endogenous proteins in cultured DRG sensory neurons. On the procedure:
Proximity Ligation Assay (PLA) in DRG cultures—The Proximity Ligation Assay (PLA) is used to detect spatial proximity within ˜40 nm of two proteins of interest [O. Söderberg et al., Nature Methods 3, 995-1000 (2006)]. DRG neurons were cultured for 24 hours and fixed for 20 minutes in 4% PFA before blocking and permeabilization with 5% Donkey Serum, 1% BSA, 0. 1% Triton X-100 in PBS for 1 hour. They were then incubated with anti-c-Fos (mouse monocolonal 1:1000, Abcam ab208942) and anti-importin α3 (rabbit polyclonal, 1:2000, Michael Bader lab′, MDC Berlin) overnight at 4° C. PLA was performed using Duolink (Sigma: PLA probe anti-mouse minus DU092004, anti-rabbit plus DU092002 with detection using Far-Red DU092013), according to the manufacturer's instructions. Identification of PLA signal within neurons was effected by subsequent immunostaining with goat anti-CGRP (AbD SEROTEC 1720-9007, IF 1:1000) for 60 minutes at room temperature, followed by three washes and an additional 60 minutes incubation with donkey anti-goat Alexa Fluor 488 (Jackson Immunoresearch, 1:1000). Cells were then washed, mounted with Flouromount-G (ThermoFisher Scientific, cat. #00-4958-02) and imaged by confocal microscopy (Olympus FV1000, 60× oil-immersion objective Olympus UPLSAPO-NA 1.35). PLA signals were quantified by counting puncta in ImageJ. […]

B1: c-Fos (other, mouse, UniProt P01101 1-380, looked up)
chain: MMFSGFNADYEASSSRCSSASPAGDSLSYYHSPADSFSSMGSPVNTQDFCADLSVSSANFIPTVTAISTSPDLQWLVQPTLVSSVAPSQTRAPHPYGLPTQSAGAYARAGMVKTVSGGRAQSIGRRGKVEQLSPEEEEKRRIRRERNKMAAAKCRNRRRELTDTLQAETDQLEDEKSALQTEIANLLKEKEKLEFILAAHRPACKIPDDLGFPEEMSVASLDLTGGLPEASTPESEEAFTLPLLNDPEPKPSLEPVKSISNVELKAEPFDDFLFPASSRPSGSETSRSVPDVDLSGSFYAADWEPLHSNSLGMGPMVTELEPLCTPVVTCTPGCTTYTSSFVFTYPEADSFPSCAAAHRKGSSSNEPSSDSLSSPTLLAL
notes: whole, on cells; Endogenous protein in both assays; The protein is intracellular, not on the cell surface
As to B1, the binding result was “binds”.
